Usually koff stands for the first-order rate constant of dissociation. A lower koff goes with slow dissociation.

The results in this text go back to patent US20210087286A1 (Amgen, published 2021).

One assay has as its target T1, huGIPR ECD (human, UniProt P48546 21-129, limits assumed).
T1 construct: Soluble analyte of the Biacore assay; also called human GIPR extracellular domain
T1 sequence: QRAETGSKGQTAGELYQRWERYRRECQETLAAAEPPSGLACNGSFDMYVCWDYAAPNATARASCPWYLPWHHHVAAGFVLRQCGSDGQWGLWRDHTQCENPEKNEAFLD
Description: SPR (Biacore T200), mAb captured via goat anti-huFc, 200 nM huGIPR ECD analyte. On the procedure: Immobilization of Goat-anti-huFc antibody to a S-CM5 sensor chip surface was performed according to manufacturer's instructions. The Biacore instrument running buffer is 0.005% P20/PBS 1×, pH7.4, no calcium chloride, no magnesium chloride. Briefly, carboxyl groups on the sensor chip surfaces were activated by injecting 60 μL of a mixture containing 0.2 M N-ethyl-N′-(dimethylaminopropyl) carbodiimide (EDC) and 0.05 M N-hydroxysuccinimide (NHS). Goat-anti-huFc antibody was diluted in 10 mM sodium acetate, pH 4.0 at 20 μg/ml and injected over the activated chip surface at 30 uL/min for 6 minutes. Excess reactive groups on the surfaces were deactivated by injecting 60 μL of 1 M ethanolamine. Final immobilized level was ˜8000 resonance units (RU).
Binding assays were carried out on the immobilized goat anti-huFc antibody surface by Biacore T200. The experiment was performed at 25° C. The instrument running buffer was 0.005% P20/PBS. The goat anti-huFc capture antibody was covalently attached to the sensor chip surface via standard amine coupling to flow cells channel 1-4. The anti-huGIPR antibodies were diluted in sample buffer (0.1 mg/ml BSA, 0.005% P20, PBS) to ˜10 nM then captured to flow cells channel 2, 3, 4. Flow cell channel 1 was as a blank reference surface without injection of anti-huGIPR antibody. The captured antibody response range was ˜250 RU. Then 200 nM huGIPR ECD was injected over the goat anti-huFc antibody captured anti-huGIPR antibody surfaces at flow rate 50 ul/min for 3 minutes. After a 10 minutes dissociation, each surface was regenerated by injecting 10 mM Glycine, pH 1.5 for 30 seconds twice.
(Surface plasmon resonance follows binding to a sensor surface in real time, without labels.)

The target of another assay is T2, human GIPR (human, UniProt P48546 22-466).
T2 sequence: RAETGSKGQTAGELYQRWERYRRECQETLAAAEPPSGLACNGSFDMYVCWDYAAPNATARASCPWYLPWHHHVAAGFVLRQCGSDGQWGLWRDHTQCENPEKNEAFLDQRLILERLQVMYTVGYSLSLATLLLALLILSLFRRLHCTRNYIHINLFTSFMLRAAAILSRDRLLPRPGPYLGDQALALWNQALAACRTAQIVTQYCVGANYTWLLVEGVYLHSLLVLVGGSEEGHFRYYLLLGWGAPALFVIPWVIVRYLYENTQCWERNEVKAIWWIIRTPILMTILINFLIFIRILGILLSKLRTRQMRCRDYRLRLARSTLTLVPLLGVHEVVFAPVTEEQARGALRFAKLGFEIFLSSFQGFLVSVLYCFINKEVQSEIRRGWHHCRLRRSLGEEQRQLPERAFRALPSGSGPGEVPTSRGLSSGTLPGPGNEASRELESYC
Description: cell-based or functional assay.

B1: 2G10.316 (antibody, human IgG1, kappa, N297G, V domains shown)
VH: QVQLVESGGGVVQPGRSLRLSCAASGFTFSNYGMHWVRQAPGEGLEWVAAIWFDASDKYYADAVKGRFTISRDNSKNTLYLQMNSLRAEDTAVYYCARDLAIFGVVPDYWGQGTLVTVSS
VL: EIVMTQSPATLSVSPGERATLSCRASQSVFRHLAWYQQKPGQAPRLLIYEAATRATGIPARFSGSGSGTEFTLTISSLQSEDFAVYYCQQYQNWPLTFGGGTKVEIKR
notes: also called SS-26193
In the assay with huGIPR ECD, B1 had an off-rate constant (koff) of less than 5e-05 s⁻¹. In addition, in the assay with human GIPR, the “cAMP IC50” value was 14.7 nM.

B2: 2G10.309 (antibody, human IgG1, kappa, N297G, V domains shown)
VH: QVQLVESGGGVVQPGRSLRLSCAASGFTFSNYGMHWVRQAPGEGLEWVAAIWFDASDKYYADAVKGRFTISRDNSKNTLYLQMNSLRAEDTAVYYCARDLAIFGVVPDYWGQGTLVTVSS
VL: EIVMTQSPATLSVSPGERATLSCRASQSVERHLAWYQQKPGQAPRLLIYEAATRATGIPARFSGSGSGTEFTLTISSLQSEDFAVYYCQQYQNWPLTFGGGTKVEIKR
notes: also called SS-26186
In the assay with huGIPR ECD, B2 had a koff of less than 5e-05 s⁻¹. Also, in the assay with human GIPR, the “cAMP IC50” value was 29.5 nM.

B3: 2G10.306 (antibody, human IgG1, kappa, N297G, V domains shown)
VH: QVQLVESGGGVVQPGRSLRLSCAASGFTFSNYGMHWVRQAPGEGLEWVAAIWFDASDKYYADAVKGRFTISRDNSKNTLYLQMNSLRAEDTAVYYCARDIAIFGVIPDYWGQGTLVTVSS
VL: EIVMTQSPATLSVSPGERATLSCRASQSVLTHLAWYQQKPGQAPRLLIYEAATRATGIPARFSGSGSGTEFTLTISSLQSEDFAVYYCQQYQNWPLTFGGGTKVEIKR
notes: also called SS-26183
Take B3: the koff in the assay with huGIPR ECD is less than 5e-05 s⁻¹. The “cAMP IC50” value in the assay with human GIPR was determined as 20.7 nM.

B4: 2G10.314 (antibody, human IgG1, kappa, N297G, V domains shown)
VH: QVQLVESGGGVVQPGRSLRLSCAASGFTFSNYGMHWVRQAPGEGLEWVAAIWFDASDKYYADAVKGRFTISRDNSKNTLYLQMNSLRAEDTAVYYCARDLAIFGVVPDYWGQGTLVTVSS
VL: EIVMTQSPATLSVSPGERATLSCRASQSVHSHLAWYQQKPGQAPRLLIYEAATRATGIPARFSGSGSGTEFTLTISSLQSEDFAVYYCQQYNNWPLTFGGGTKVEIKR
notes: also called SS-26191
In the assay with huGIPR ECD, B4 registered an off-rate constant (koff) of 6e-05 s⁻¹. Besides, the “cAMP IC50” value with human GIPR is 17.5 nM.

B5: 2G10.312 (antibody, human IgG1, kappa, N297G, V domains shown)
VH: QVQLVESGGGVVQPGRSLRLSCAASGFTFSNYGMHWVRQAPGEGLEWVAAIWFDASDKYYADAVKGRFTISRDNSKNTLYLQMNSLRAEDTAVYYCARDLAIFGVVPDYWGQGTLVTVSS
VL: EIVMTQSPATLSVSPGERATLSCRASQSVFEHLAWYQQKPGQAPRLLIYEAATRATGIPARFSGSGSGTEFTLTISSLQSEDFAVYYCQQYNNWPLTFGGGTKVEIKR
notes: also called SS-26189
B5 gave a koff with huGIPR ECD of less than 5e-05 s⁻¹. Further, the “cAMP IC50” value with human GIPR is 23.2 nM.

B6: 2G10.307 (antibody, human IgG1, kappa, N297G, V domains shown)
VH: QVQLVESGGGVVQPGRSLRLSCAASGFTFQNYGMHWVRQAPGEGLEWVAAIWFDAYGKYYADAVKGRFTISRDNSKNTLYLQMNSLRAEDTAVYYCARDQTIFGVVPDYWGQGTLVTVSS
VL: EIVMTQSPATLSVSPGERATLSCRASQSVDRHLAWYQQKPGQAPRLLIYEAATRATGIPARFSGSGSGTEFTLTISSLQSEDFAVYYCQQYNQWPLTFGGGTKVEIKR
notes: also called SS-26184
B6: in the assay with huGIPR ECD, the off-rate (koff) stood at 6e-05 s⁻¹. In the assay with human GIPR, the “cAMP IC50” value worked out at 17.4 nM.

B7: 2G10.303 (antibody, human IgG1, kappa, N297G, V domains shown)
VH: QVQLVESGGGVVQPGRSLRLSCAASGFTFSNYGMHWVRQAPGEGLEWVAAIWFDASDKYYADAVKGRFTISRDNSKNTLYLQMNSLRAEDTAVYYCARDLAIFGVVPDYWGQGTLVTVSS
VL: EIVMTQSPATLSVSPGERATLSCRASQSVDRHLAWYQQKPGQAPRLLIYEAATRATGIPARFSGSGSGTEFTLTISSLQSEDFAVYYCQQYQNWPLTFGGGTKVEIKR
notes: also called SS-26180
The molecule B7 returned a koff in the assay with huGIPR ECD of 7e-05 s⁻¹. In addition, the “cAMP IC50” value with human GIPR was 23.1 nM.

B8: 2G10.317 (antibody, human IgG1, kappa, N297G, V domains shown)
VH: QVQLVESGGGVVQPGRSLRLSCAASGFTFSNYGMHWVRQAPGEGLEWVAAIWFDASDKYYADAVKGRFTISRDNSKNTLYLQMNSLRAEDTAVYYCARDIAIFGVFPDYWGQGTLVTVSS
VL: EIVMTQSPATLSVSPGERATLSCRASQSVNRHLAWYQQKPGQAPRLLIYEAATRATGIPARFSGSGSGTEFTLTISSLQSEDFAVYYCQQYQQWPLTFGGGTKVEIKR
notes: also called SS-26194
For B8, the koff with huGIPR ECD was less than 5e-05 s⁻¹. The “cAMP IC50” value with human GIPR came out at 13.7 nM.

B9: 2G10.301 (antibody, human IgG1, kappa, N297G, V domains shown)
VH: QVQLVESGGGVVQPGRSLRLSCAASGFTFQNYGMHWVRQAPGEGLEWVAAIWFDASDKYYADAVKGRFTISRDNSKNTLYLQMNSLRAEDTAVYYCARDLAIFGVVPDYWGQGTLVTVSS
VL: EIVMTQSPATLSVSPGERATLSCRASQSVFSHLAWYQQKPGQAPRLLIYEAATRATGIPARFSGSGSGTEFTLTISSLQSEDFAVYYCQQYQNWPLTFGGGTKVEIKR
notes: also called SS-26178
In the assay with huGIPR ECD, B9 returned a koff of 7e-05 s⁻¹. Also, the “cAMP IC50” value with human GIPR worked out at 17.6 nM.

B10: 2G10.319 (antibody, human IgG1, kappa, N297G, V domains shown)
VH: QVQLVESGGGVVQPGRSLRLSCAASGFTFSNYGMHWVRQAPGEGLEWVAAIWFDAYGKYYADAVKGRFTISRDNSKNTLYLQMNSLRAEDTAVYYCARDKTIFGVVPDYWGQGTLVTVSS
VL: EIVMTQSPATLSVSPGERATLSCRASQSVFRHLAWYQQKPGQAPRLLIYEAATRATGIPARFSGSGSGTEFTLTISSLQSEDFAVYYCQQYQNWPLTFGGGTKVEIKR
B10: in the assay with huGIPR ECD, the koff worked out at 6e-05 s⁻¹. Further, the “cAMP IC50” value with human GIPR was determined as 7.9 nM.

B11: 2G10.305 (antibody, human IgG1, kappa, N297G, V domains shown)
VH: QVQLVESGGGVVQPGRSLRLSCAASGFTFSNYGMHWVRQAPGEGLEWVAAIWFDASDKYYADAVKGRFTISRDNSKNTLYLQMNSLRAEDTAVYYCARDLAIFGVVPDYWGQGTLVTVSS
VL: EIVMTQSPATLSVSPGERATLSCRASQSVDVNLAWYQQKPGQAPRLLIYNAATRATGIPARFSGSGSGTEFTLTISSLQSEDFAVYYCQQYQNWPLTFGGGTKVEIKR
notes: also called SS-26182
With B11, the koff with huGIPR ECD was less than 5e-05 s⁻¹. Further, the “cAMP IC50” value in the assay with human GIPR was 27.2 nM.

B12: 2G10.318 (antibody, human IgG1, kappa, N297G, V domains shown)
VH: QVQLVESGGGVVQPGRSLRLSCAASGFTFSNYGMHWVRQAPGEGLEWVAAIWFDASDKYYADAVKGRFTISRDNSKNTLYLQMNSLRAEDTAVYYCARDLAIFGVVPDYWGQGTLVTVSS
VL: EIVMTQSPATLSVSPGERATLSCRASQSVLSHLAWYQQKPGQAPRLLIYEAATRATGIPARFSGSGSGTEFTLTISSLQSEDFAVYYCQQYNNWPLTFGGGTKVEIKR
Take B12: the dissociation rate constant (koff) with huGIPR ECD is less than 5e-05 s⁻¹. Also, in the assay with human GIPR, the “cAMP IC50” value was determined as 20.9 nM.

B13: 2G10.315 (antibody, human IgG1, kappa, N297G, V domains shown)
VH: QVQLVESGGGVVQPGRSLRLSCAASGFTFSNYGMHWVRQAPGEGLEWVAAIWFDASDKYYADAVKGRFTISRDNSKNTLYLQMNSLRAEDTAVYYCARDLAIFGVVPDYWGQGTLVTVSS
VL: EIVMTQSPATLSVSPGERATLSCRASQSVLTHLAWYQQKPGQAPRLLIYEAATRATGIPARFSGSGSGTEFTLTISSLQSEDFAVYYCQQYQNWPLTFGGGTKVEIKR
notes: also called SS-26192
Regarding B13, the dissociation rate constant (koff) in the assay with huGIPR ECD was less than 5e-05 s⁻¹. The “cAMP IC50” value in the assay with human GIPR was 22 nM.

B14: 2G10.324 (antibody, human IgG1, kappa, N297G, V domains shown)
VH: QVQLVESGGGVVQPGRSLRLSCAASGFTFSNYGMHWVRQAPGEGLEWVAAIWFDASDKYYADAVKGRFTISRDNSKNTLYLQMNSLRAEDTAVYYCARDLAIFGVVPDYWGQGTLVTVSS
VL: EIVMTQSPATLSVSPGERATLSCRASQSVLSHLAWYQQKPGQAPRLLIYEAATRATGIPARFSGSGSGTEFTLTISSLQSEDFAVYYCQQYQNWPLTFGGGTKVEIKR
B14 returned a dissociation rate constant (koff) with huGIPR ECD of less than 5e-05 s⁻¹. In addition, in the assay with human GIPR, the “cAMP IC50” value came to 14.1 nM.

B15: 2G10.302 (antibody, human IgG1, kappa, N297G, V domains shown)
VH: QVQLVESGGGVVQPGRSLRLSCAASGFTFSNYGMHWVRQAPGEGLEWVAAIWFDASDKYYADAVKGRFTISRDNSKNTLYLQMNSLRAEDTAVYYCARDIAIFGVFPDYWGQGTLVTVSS
VL: EIVMTQSPATLSVSPGERATLSCRASQSVFEHLAWYQQKPGQAPRLLIYEAATRATGIPARFSGSGSGTEFTLTISSLQSEDFAVYYCQQYNNWPLTFGGGTKVEIKR
notes: also called SS-26179
Turning to B15, the dissociation rate constant (koff) with huGIPR ECD is less than 5e-05 s⁻¹. Moreover, the “cAMP IC50” value with human GIPR worked out at 19.9 nM.

B16: 2G10.322 (antibody, human IgG1, kappa, N297G, V domains shown)
VH: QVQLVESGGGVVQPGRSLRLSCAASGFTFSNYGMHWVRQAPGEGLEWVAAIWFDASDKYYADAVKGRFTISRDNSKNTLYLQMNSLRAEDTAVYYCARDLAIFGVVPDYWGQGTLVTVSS
VL: EIVMTQSPATLSVSPGERATLSCRASQSVMSHLAWYQQKPGQAPRLLIYEAATRATGIPARFSGSGSGTEFTLTISSLQSEDFAVYYCQQYQNWPLTFGGGTKVEIKR
In the assay with huGIPR ECD, B16 yielded a koff of 6e-05 s⁻¹. Also, in the assay with human GIPR, the “cAMP IC50” value came to 17.9 nM.

B17: 2G10.313 (antibody, human IgG1, kappa, N297G, V domains shown)
VH: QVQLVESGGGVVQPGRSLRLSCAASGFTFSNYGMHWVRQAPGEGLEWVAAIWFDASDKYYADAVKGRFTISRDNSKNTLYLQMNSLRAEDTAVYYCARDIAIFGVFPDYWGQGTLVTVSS
VL: EIVMTQSPATLSVSPGERATLSCRASQSVDRHLAWYQQKPGQAPRLLIYEAATRATGIPARFSGSGSGTEFTLTISSLQSEDFAVYYCQQYNQWPLTFGGGTKVEIKR
notes: also called SS-26190
Consider B17, for which the dissociation rate constant (koff) with huGIPR ECD was less than 5e-05 s⁻¹. Moreover, the “cAMP IC50” value in the assay with human GIPR is 20.7 nM.

B18: 2G10.321 (antibody, human IgG1, kappa, N297G, V domains shown)
VH: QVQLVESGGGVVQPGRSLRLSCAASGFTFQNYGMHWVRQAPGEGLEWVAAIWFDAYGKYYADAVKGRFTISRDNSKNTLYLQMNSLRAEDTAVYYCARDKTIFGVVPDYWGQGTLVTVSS
VL: EIVMTQSPATLSVSPGERATLSCRASQSVNRHLAWYQQKPGQAPRLLIYEAATRATGIPARFSGSGSGTEFTLTISSLQSEDFAVYYCQQYNQWPLTFGGGTKVEIKR
In the assay with huGIPR ECD, B18 showed a koff of less than 5e-05 s⁻¹. Moreover, the “cAMP IC50” value in the assay with human GIPR is 7.46 nM.

B19: 2G10.308 (antibody, human IgG1, kappa, N297G, V domains shown)
VH: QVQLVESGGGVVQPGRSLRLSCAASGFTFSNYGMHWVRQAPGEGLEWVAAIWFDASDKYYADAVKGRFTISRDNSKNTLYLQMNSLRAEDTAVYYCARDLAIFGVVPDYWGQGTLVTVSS
VL: EIVMTQSPATLSVSPGERATLSCRASQSVFSHLAWYQQKPGQAPRLLIYEAATRATGIPARFSGSGSGTEFTLTISSLQSEDFAVYYCQQYQQWPLTFGGGTKVEIKR
notes: also called SS-26185
For B19, the koff in the assay with huGIPR ECD is less than 5e-05 s⁻¹. Also, the “cAMP IC50” value with human GIPR was 18.3 nM.

B20: 2G10.311 (antibody, human IgG1, kappa, N297G, V domains shown)
VH: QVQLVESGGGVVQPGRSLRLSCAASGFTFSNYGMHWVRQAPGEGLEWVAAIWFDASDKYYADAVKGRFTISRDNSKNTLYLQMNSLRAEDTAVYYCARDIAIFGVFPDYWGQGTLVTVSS
VL: EIVMTQSPATLSVSPGERATLSCRASQSVNVHLAWYQQKPGQAPRLLIYQAATRATGIPARFSGSGSGTEFTLTISSLQSEDFAVYYCQQYNQWPLTFGGGTKVEIKR
notes: also called SS-26188
B20: the dissociation rate constant (koff) with huGIPR ECD is 6e-05 s⁻¹. Besides, the “cAMP IC50” value with human GIPR was determined as 14.9 nM.

B21: 2G10.304 (antibody, human IgG1, kappa, N297G, V domains shown)
VH: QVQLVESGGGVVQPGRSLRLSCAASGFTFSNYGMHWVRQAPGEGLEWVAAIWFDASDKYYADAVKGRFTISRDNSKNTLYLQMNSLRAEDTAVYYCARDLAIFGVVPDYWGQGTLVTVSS
VL: EIVMTQSPATLSVSPGERATLSCRASQSVNRHLAWYQQKPGQAPRLLIYEAATRATGIPARFSGSGSGTEFTLTISSLQSEDFAVYYCQQYQNWPLTFGGGTKVEIKR
notes: also called SS-26181
For B21, the koff in the assay with huGIPR ECD is less than 5e-05 s⁻¹. For the same molecule, the “cAMP IC50” value with human GIPR came to 16.9 nM.

B22: 2G10.323 (antibody, human IgG1, kappa, N297G, V domains shown)
VH: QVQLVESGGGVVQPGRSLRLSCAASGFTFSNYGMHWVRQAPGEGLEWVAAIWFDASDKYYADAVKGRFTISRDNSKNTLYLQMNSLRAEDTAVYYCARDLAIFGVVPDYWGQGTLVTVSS
VL: EIVMTQSPATLSVSPGERATLSCRASQSVHRHLAWYQQKPGQAPRLLIYEAATRATGIPARFSGSGSGTEFTLTISSLQSEDFAVYYCQQYQNWPLTFGGGTKVEIKR
The molecule B22 came in with a dissociation rate constant (koff) with huGIPR ECD of less than 5e-05 s⁻¹. In the assay with human GIPR, the “cAMP IC50” value came out at 17.4 nM.
